Results published in PMC8473560, “Molecular basis of C-S bond cleavage in the glycyl radical enzyme isethionate sulfite-lyase” (Cell Chemical Biology, 2021).

B1: isethionate sulfite-lyase (IslA) from Bilophila wadsworthia 3.1.6 (enzyme)
chain: MTQVAEIKSPHEQRLEDNIAGKEDIYRESHKRVFKLLERFDGQKPAIDVERALYFTQSMAETVGQPLVLRWAKALMNVAKNITVMVQDDQLLLGRCGGHDGRYGILYPELDGDFLDIAVRDLPTRPQSPASISPEDAKIVVEQIAPFWKGRTYHEALNKALPAEVHKLTYDDPDGLISRFIVNETSSFRSSIQWVHDYEVVLKRGFNGLKQEMEEKLAALDPASPVDQVDKRPFIEATILVCDAIVLWAKRHADAARKAAEACADPVRKAELIRMAENAEHVPANPARDFYEAVQSQYFTQMFSRLEQKTGTTISNGRMDQYFYPFYKKDMEAGILTDEKTLEYLECMWVGMAEFIDMYISPAGGAFNEGYAHWEAVTIGGQTPDGRDATNDLTYLFLKSKREFPLHYPDLAARIHSRAPERYLWDVAETIKFGSGFPKLCNDEECIPLYVSKGATFEEALDYAVSGCIEIRMPNRDTYTSGGAYTNFASAVEMALYDGKMKKYGDVQLGIQTGDARKFKSWDEFWNAYVQQHMLLLRTTFIQQYIVIQTRAKHFAQPMGSVLHALCRKHCIDLHQPQIPEGLNFGYFEFMGLGTVIDSLAAIKKLVFEDKKLTMDQLIDALEANFEGYEDIQQLLRTAPCYGNDDEYADEIGRELDRMAVSFAAKYGKEMGINNDARYVPFTSHVPFGKVVSATPNGRVAWFPLADGSSPSHGADHNGPTAILLSNHNTKNYGMRARAARLINVKFTPKCVEGDAGTEKLVQFIRTWCDLKLWHIQFNVINADTLKKAQKDPQKYRNLIVRIAGYSAYFVDLTPDLQNDLIARTGHDQM
notes: Isethionate sulfite-lyase IslA, Bilophila wadsworthia 3.1.6, wild type; expressed from pET-28a-IslA (Peck et al., 2019); It calls the structure native/wild-type and gives '6-830 (of 830 residues)', so the whole protein is likely, but the words 'full length' are not used; also called IsIA; wild-type IslA; source: E. coli BL21(DE3), purified (Ni-NTA, dialysis); not shown: His-tag, N-terminal, kept

Key:
[1] = target: T1, IslA (isethionate sulfite-lyase) (Bilophila wadsworthia, UniProt E5Y378); assay: X-ray crystal structure, […] Å; type: binding; details: unactivated enzyme, aerobic, 30 mM sodium isethionate, pH 7.5, 22 °C; active site
T1 construct: full length, 830 residues, N-terminal His-tag kept (pET-28a), expressed in E. coli BL21(DE3); homodimer

O=S(=O)(O)CCO [2] = assay: purified protein; details: IslA activated by IslB and S-adenosylmethionine, anoxic, 30 °C, isethionate 1-50 mM, kcat not normalized to glycyl radical content
O=S(=O)(O)CCO [3] = assay: purified protein; type: biochemical, Bilophila wadsworthia; details: IslA activated by IslB and S-adenosylmethionine, anoxic, 30 °C, isethionate 1-50 mM, kcat not normalized to glycyl radical content
[4] = target: the molecule itself; assay: crystal structure; hanging drop vapor diffusion at 22°C, aerobic; unactivated IslA with intact N-terminal His-tag, 7.5 mg/mL in 50 mM HEPES pH 7.5, 50 mM NaCl; glycerol-bound (2.26 Å, P21212) and isethionate-bound (2.70 Å, P212121) crystal forms

| Molecule | Km (O=S(=O)(O)CCO [3]) | kcat (O=S(=O)(O)CCO [3]) | other results |
| --- | --- | --- | --- |
| O=S(=O)(O)CCO [isethionate, 2-hydroxyethanesulfonate] |  |  | X-ray crystal structure, 2.70 Å [1]: a second IslA structure with the substrate Ise bound was obtained |
| IslA (isethionate sulfite-lyase) (Bilophila wadsworthia 3_1_6) |  |  | Km (O=S(=O)(O)CCO [2]): 8 ± 2 mM |
| IslA (isethionate sulfite-lyase) (Bilophila wadsworthia 3_1_6; F682A) | 6.8 ± 0.6 mM | 0.0171 ± 0.0004 s⁻¹ |  |
| IslA (isethionate sulfite-lyase) (Bilophila wadsworthia 3_1_6; F682Y) | 8 ± 1 mM | 0.0074 ± 0.0003 s⁻¹ |  |
| IslA (isethionate sulfite-lyase) (Bilophila wadsworthia 3_1_6; I192A) | 12 ± 2 mM | 0.4 ± 0.02 s⁻¹ |  |
| IslA (isethionate sulfite-lyase) (Bilophila wadsworthia 3_1_6; W374F) | 11 ± 1 mM | 0.063 ± 0.003 s⁻¹ |  |
| IslA (isethionate sulfite-lyase) (Bilophila wadsworthia 3_1_6; W374Y) | 16.0 ± 0.9 mM | 0.14 ± 0.003 s⁻¹ |  |
| B1 |  |  | stoichiometry N [4]: 2 |
